The record followed here is US20040156824A1.

Ends that are not written are not given here.

Experiment [1] concerns the target nucleohistones expressed in the nucleus of mammalian cells. Description: radioimmunoassay on paraformaldehyde-acetone-treated cells.
Experiment [2] addresses variant of the HLA-Dr antigen expressed on the cell surface of human B-lymphocytes and malignant lymphomas (human). Description: indirect cell binding assay.
Experiment [3] has the same target. Description: live cell binding assay.
Experiment [4] has as its target nucleohistones expressed in the nucleus of mammalian cells. In words: cell binding assay (printed as live cell binding assay).
Experiment [5] concerns the target variant of the HLA-Dr antigen expressed on the cell surface of human B-lymphocytes and malignant lymphomas (human). Description: live cell radioimmunoassay on Raji cells.

Consider “125I-labeled TNT-1 F(ab')2 fragment (antibody)”, for which the immunoreactivity in experiment [1] was more than 80%.

Take “Lym-1/3B immunoconjugate (from UniProt P60568 53-78)”: the percent of the antibody binding reactivity retained against unconjugated antibody in experiment [2] is more than 75%.

Take “Lym-1/4A immunoconjugate (from UniProt P60568 125-153)”: the percent of the antibody binding reactivity retained against unconjugated antibody in experiment [2] is more than 75%.

In experiment [2], “Lym-1/4B immunoconjugate (from UniProt P60568 107-153)” returned a percent of the antibody binding reactivity retained against unconjugated antibody of more than 75%.

Consider “Lym-1/A3 immunoconjugate (from UniProt P60568 57-92)”, for which the percent of the antibody binding reactivity retained against unconjugated antibody in experiment [2] was more than 75%.

In experiment [3], “Lym-1/IL-2 immunoconjugate (from UniProt P60568 21-153)” gave a percent of the antibody binding reactivity retained against unconjugated antibody of more than 75%.

Turning to “TNT-1/IL-2 immunoconjugate (from UniProt P60568 21-153)”, the percent of the antibody binding reactivity retained against unconjugated antibody in experiment [4] was more than 75%.

B1: 125I-labeled Lym-1 F(ab')2 fragment (antibody, from another filing, mouse IgG2a, V domains shown)
VH: QLKESGPGLVAPSQSLSITCTISGFSLTSYGVHWVRQPPGKGLEWLVVIWSDGSTTYNSALKSRLSISKDNSKSQVFLKMNSLQTDDTAIYYCASHYGSTLAFASWGHGTLVTVSA
VL: DIQMTQSPASLSASVGETVTIICRASVNIYSYLAWYQQKQGKSPQLLVYNAKILAEGVPSRFSGSGSGTQFSLKINSLQPEDFGSYYCQHHYGTFTFGSGTKLEIK
In experiment [5], B1 showed a percent of radiolabeled preparation bound to cells (immunoreactivity) of 80%.

With FYMPKKATELKHLQC (peptide, UniProt P60568 64-78, looked up, part only, also: conjugated to murine antibody Lym-1) [Lym-1/3A immunoconjugate], in experiment [2], the percent of the antibody binding reactivity retained against unconjugated antibody was more than 75%.

In the case of TRMLTFKFYMPKKATELKHLQC (peptide, UniProt P60568 57-78, looked up, part only, also: conjugated to murine antibody Lym-1) [Lym-1/B1 immunoconjugate], the percent of the antibody binding reactivity retained against unconjugated antibody in experiment [2] was more than 75%.

In experiment [2], QMILNGINNYKNPKLTR (peptide, UniProt P60568 42-58, looked up, part only, also: conjugated to murine antibody Lym-1) [Lym-1/E6 immunoconjugate] returned a percent of the antibody binding reactivity retained against unconjugated antibody of more than 75%.
